Experimental data published in publication PMC12699821, “STARD4 suppresses tumorigenesis and attenuates enzalutamide resistance via lipid metabolic reprogramming and AR stabilization in prostate cancer” (Journal of Experimental & Clinical Cancer Research : CR, 2025).

Molecular target: T1, GST-tagged AR (human (Gene ID 367 is the human gene), UniProt P10275 1-920)
T1 construct: androgen receptor, Gene ID 367, in vector pGEX-4T-1; also called GST-AR; source: BL21 (Rosetta) bacterial cells, purified (protein purification kit)
T1 sequence (looked up): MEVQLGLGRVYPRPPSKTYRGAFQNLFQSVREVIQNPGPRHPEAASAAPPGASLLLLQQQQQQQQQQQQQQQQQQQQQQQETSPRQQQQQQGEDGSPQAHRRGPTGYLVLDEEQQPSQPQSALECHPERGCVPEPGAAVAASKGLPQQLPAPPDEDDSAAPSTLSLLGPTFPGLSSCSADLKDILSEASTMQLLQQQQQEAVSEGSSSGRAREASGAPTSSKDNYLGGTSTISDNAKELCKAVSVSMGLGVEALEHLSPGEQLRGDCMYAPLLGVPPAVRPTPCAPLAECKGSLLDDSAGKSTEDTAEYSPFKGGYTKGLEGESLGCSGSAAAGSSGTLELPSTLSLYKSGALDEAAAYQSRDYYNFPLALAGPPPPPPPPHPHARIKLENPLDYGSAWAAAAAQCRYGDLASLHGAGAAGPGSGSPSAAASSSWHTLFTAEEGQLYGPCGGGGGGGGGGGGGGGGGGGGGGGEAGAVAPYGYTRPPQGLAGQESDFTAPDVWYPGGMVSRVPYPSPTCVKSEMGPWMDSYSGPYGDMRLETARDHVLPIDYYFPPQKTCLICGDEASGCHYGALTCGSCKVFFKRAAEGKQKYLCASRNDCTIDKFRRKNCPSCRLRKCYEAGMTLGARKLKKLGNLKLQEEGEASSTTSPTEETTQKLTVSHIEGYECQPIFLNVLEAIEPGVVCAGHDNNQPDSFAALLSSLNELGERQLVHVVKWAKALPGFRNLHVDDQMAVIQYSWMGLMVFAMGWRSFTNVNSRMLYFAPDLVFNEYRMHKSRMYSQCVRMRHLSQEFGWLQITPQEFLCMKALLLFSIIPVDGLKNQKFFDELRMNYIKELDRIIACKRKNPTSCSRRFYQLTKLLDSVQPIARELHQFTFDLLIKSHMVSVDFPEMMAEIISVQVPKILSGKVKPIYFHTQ
Test: pull-down; purified GST-tagged protein immobilised on glutathione-Sepharose beads, incubated with His-tagged protein in PMSF-supplemented affinity isolation buffer, western blotting
Settings: both partners purified

binding result: binds
B1: His-tagged STARD4 (natural protein, human (Gene ID 134429 is the human gene), UniProt Q96DR4 1-205, looked up)
chain: MEGLSDVASFATKLKNTLIQYHSIEEDKWRVAKKTKDVTVWRKPSEEFNGYLYKAQGVIDDLVYSIIDHIRPGPCRLDWDSLMTSLDILENFEENCCVMRYTTAGQLWNIISPREFVDFSYTVGYKEGLLSCGISLDWDEKRPEFVRGYNHPCGWFCVPLKDNPNQSLLTGYIQTDLRGMIPQSAVDTAMASTLTNFYGDLRKAL
notes: STARD4, Gene ID 134429, vector printed as pGMLV; also called His-STARD4; source: BL21 (Rosetta) bacterial cells, purified (protein purification kit)
